Assay [1] concerns the target T1, human PCSK9 (proprotein convertase subtilisin/kexin type 9), His-tagged, full-length (human, UniProt A8T644 31-152; Q8NBP7 153-692, limits assumed).
T1 construct: The secreted protein is the prodomain plus the catalytic/Cys-rich part (N-terminus S153) after autocleavage; also called His-PCSK9; NARC-1
The assay is described as follows: TR-FRET competition vs EGF(A)-Fc on His-PCSK9.

In assay [2] the target is T2, His-tagged, full-length PCSK9 (human, UniProt A8T644 31-152; Q8NBP7 153-692).
T2 construct: Target protein of the PCSK9/EGF(A) TR-FRET assay (10 nM); also called His-PCSK9; proprotein convertase subtilisin/kexin type 9
T2 sequence (A8T644 31-152 limits assumed, chain 1 of 2): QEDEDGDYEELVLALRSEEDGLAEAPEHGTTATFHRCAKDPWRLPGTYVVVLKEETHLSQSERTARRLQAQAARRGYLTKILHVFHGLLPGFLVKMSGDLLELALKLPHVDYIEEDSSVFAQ
T2 sequence (A8T644 other isoform, or with tags, fused parts or gaps limits assumed, chain 2 of 2): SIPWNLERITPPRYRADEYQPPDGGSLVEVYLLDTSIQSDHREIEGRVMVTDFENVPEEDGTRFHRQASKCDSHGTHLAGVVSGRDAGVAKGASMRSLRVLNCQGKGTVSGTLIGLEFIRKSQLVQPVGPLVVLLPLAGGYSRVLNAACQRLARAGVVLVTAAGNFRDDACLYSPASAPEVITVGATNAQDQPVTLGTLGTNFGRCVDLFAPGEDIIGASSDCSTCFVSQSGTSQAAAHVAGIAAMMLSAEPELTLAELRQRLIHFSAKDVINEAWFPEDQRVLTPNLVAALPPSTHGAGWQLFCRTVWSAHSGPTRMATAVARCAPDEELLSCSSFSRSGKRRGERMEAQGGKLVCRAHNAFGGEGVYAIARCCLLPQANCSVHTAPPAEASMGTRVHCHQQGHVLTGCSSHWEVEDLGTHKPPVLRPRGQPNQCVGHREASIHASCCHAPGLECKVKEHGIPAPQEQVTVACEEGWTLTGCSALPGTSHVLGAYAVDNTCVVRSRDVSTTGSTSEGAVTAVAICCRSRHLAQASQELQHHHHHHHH
Nature of the assay: TR-FRET competition; competitor EGF(A)-Fc on His-PCSK9.

In assay [3] the target is T1, human PCSK9 (proprotein convertase …). The assay is described as follows: SPR, SensiQ Pioneer FE, amine-coupled protein, OneStep gradient injection (Method 3).

Data on 33 molecules can be found in patent publication US20190177366A1 (published 2019).

Values joined by “and” are separate entries in the source; they are usually repeats but may differ in a detail not shown here. Identical values can stand only once. Bridge positions count the residues as written; N and C are the ends. Square brackets hold non-standard residues; d marks the D form. * marks the point of attachment. Fmoc = O=C(OCC1c2ccccc2-c2ccccc21)*; hArg = N=C(N)NCCCC[C@H](N)C(=O)O; Pentanoyl = CCCCC(=O)* A value given as a limit tells only on which side of the number the result lay.

T1 sequence (A8T644 31-152 limits assumed, chain 1 of 2): as the sequence (A8T644 31-152 limits assumed, chain 1 of 2) above
T1 sequence (A8T644 other isoform, or with tags, fused parts or gaps limits assumed, chain 2 of 2): as the sequence (A8T644 other isoform, or with tags, fused parts or gaps limits assumed, chain 2 of 2) above

With Ac-DLMPWNLVRI-NH2 [Compound 49], the IC50 in assay [1] is > 50 µM.

The molecule Ac-GSGCWNLKRIGSQGCW-NH2 (disulfide 4-15 (inferred)) [Compound 40] yielded an IC50 in assay [2] of 5.96 µM.

B1: Compound 98 (peptide)
peptide: Fmoc-GSGCWNLKRIGSQGC-NH2
modifications: disulfide 4-15
SMILES: CC[C@H](C)[C@@H]1NC(=O)[C@H](CCCNC(=N)N)NC(=O)[C@H](CCCCN)NC(=O)[C@H](CC(C)C)NC(=O)[C@H](CC(N)=O)NC(=O)[C@H](Cc2c[nH]c3ccccc23)NC(=O)[C@@H](NC(=O)CNC(=O)[C@H](CO)NC(=O)CNC(=O)OCC2c3ccccc3-c3ccccc32)CSSC[C@@H](C(N)=O)NC(=O)CNC(=O)[C@H](CCC(N)=O)NC(=O)[C@H](CO)NC(=O)CNC1=O
In the case of B1, in assay [2], the IC50 stood at 37.6 µM. This IC50 is about 6.3-fold higher than that of the molecule before.

For Ac-PWNLVRIGL-NH2 [Compound 119], the IC50 in assay [1] is > 50 µM.

Take Ac-CWNLKRIGSQGC-NH2 (disulfide 1-12 (inferred)) [Compound 21]: in assay [2], the IC50 was > 50 µM.

B2: Compound 111 (peptide)
peptide: Pentanoyl-WNLVRIGLLR-NH2
SMILES: CCCCC(=O)N[C@@H](Cc1c[nH]c2ccccc12)C(=O)N[C@@H](CC(N)=O)C(=O)N[C@@H](CC(C)C)C(=O)N[C@H](C(=O)N[C@@H](CCCNC(=N)N)C(=O)N[C@H](C(=O)NCC(=O)N[C@@H](CC(C)C)C(=O)N[C@@H](CC(C)C)C(=O)N[C@@H](CCCNC(=N)N)C(N)=O)[C@@H](C)CC)C(C)C
With B2, the 50% inhibitory concentration (IC50) in assay [1] was > 50 µM.

B3: Compound 118 (peptide)
peptide: Pentanoyl-WNLV[hArg]IGLTR-NH2
SMILES: CCCCC(=O)N[C@@H](Cc1c[nH]c2ccccc12)C(=O)N[C@@H](CC(N)=O)C(=O)N[C@@H](CC(C)C)C(=O)N[C@H](C(=O)N[C@@H](CCCCNC(=N)N)C(=O)N[C@H](C(=O)NCC(=O)N[C@@H](CC(C)C)C(=O)N[C@H](C(=O)N[C@@H](CCCNC(=N)N)C(N)=O)[C@@H](C)O)[C@@H](C)CC)C(C)C
notes: also called n-BuC(O)-WNLV(homoR)IGLTR-NH2
On to B3, for which the 50% inhibitory concentration (IC50) in assay [1] was > 50 µM.

With Ac-WNLVRIGL-NH2 [Compound 120], the 50% inhibitory concentration (IC50) in assay [1] was > 50 µM.

Take Ac-CWNLKRIGSQGCW-NH2 (disulfide 1-12 (inferred)) [Compound 39]: the IC50 in assay [2] was > 50 µM.

B4: Compound 112 (peptide)
peptide: Pentanoyl-WNLVRIGLTR-NH2
SMILES: CCCCC(=O)N[C@@H](Cc1c[nH]c2ccccc12)C(=O)N[C@@H](CC(N)=O)C(=O)N[C@@H](CC(C)C)C(=O)N[C@H](C(=O)N[C@@H](CCCNC(=N)N)C(=O)N[C@H](C(=O)NCC(=O)N[C@@H](CC(C)C)C(=O)N[C@H](C(=O)N[C@@H](CCCNC(=N)N)C(N)=O)[C@@H](C)O)[C@@H](C)CC)C(C)C
With B4, in assay [1], the concentration for half-maximal inhibition (IC50) was > 50 µM.

B5: Compound 113 (peptide)
peptide: Pentanoyl-WNLVRIGTTR-NH2
SMILES: CCCCC(=O)N[C@@H](Cc1c[nH]c2ccccc12)C(=O)N[C@@H](CC(N)=O)C(=O)N[C@@H](CC(C)C)C(=O)N[C@H](C(=O)N[C@@H](CCCNC(=N)N)C(=O)N[C@H](C(=O)NCC(=O)N[C@H](C(=O)N[C@H](C(=O)N[C@@H](CCCNC(=N)N)C(N)=O)[C@@H](C)O)[C@@H](C)O)[C@@H](C)CC)C(C)C
With B5, in assay [1], the IC50 was > 50 µM.

B6: Compound 114 (peptide)
peptide: Pentanoyl-WNLVRIGTLR-NH2
SMILES: CCCCC(=O)N[C@@H](Cc1c[nH]c2ccccc12)C(=O)N[C@@H](CC(N)=O)C(=O)N[C@@H](CC(C)C)C(=O)N[C@H](C(=O)N[C@@H](CCCNC(=N)N)C(=O)N[C@H](C(=O)NCC(=O)N[C@H](C(=O)N[C@@H](CC(C)C)C(=O)N[C@@H](CCCNC(=N)N)C(N)=O)[C@@H](C)O)[C@@H](C)CC)C(C)C
Regarding B6, in assay [1], the IC50 was > 50 µM.

As for Ac-DLMPWNLVRIGLLR-NH2 [Compound 35], the 50% inhibitory concentration (IC50) in assay [1] was > 50 µM.

Ac-DLMPWNLVAIGLLR-NH2 [Compound 59]: the IC50 in assay [1] is > 50 µM.

For the molecule Ac-DLMPWNLARIGLLR-NH2 [Compound 60], the IC50 in assay [1] is > 50 µM.

Ac-DLMPANLVRIGLLR-NH2 [Compound 41]: the half-maximal inhibitory concentration (IC50) in assay [1] is > 50 µM.

For the molecule Ac-DLMPWNLVRIGLLA-NH2 [Compound 54], the IC50 in assay [1] is > 50 µM.

In the case of Ac-DLMPWNAVRIGLLR-NH2 [Compound 61], the IC50 in assay [1] is > 50 µM.

For Ac-DAMPWNLVRIGLLR-NH2 [Compound 44], the IC50 in assay [1] is > 50 µM.

For the molecule Ac-DLMPWALVRIGLLR-NH2 [Compound 62], the IC50 in assay [1] was > 50 µM.

Turning to Ac-DLMAWNLVRIGLLR-NH2 [Compound 42], the 50% inhibitory concentration (IC50) in assay [1] is > 50 µM.

Regarding Ac-DLAPWNLVRIGLLR-NH2 [Compound 43], the concentration for half-maximal inhibition (IC50) in assay [1] is > 50 µM.

As for Ac-DLMPWNLVRAGLLR-NH2 [Compound 58], the IC50 in assay [1] is > 50 µM.

Consider Ac-DLMPWNLVRIGALR-NH2 [Compound 56], for which, in assay [1], the 50% inhibitory concentration (IC50) was > 50 µM.

B7: Compound 88 (peptide)
peptide: Ac-FCLWNLARIGSQCWF-NH2
modifications: disulfide 2-13
SMILES: CC[C@H](C)[C@@H]1NC(=O)[C@H](CCCNC(=N)N)NC(=O)[C@H](C)NC(=O)[C@H](CC(C)C)NC(=O)[C@H](CC(N)=O)NC(=O)[C@H](Cc2c[nH]c3ccccc23)NC(=O)[C@H](CC(C)C)NC(=O)[C@@H](NC(=O)[C@H](Cc2ccccc2)NC(C)=O)CSSC[C@@H](C(=O)N[C@@H](Cc2c[nH]c3ccccc23)C(=O)N[C@@H](Cc2ccccc2)C(N)=O)NC(=O)[C@H](CCC(N)=O)NC(=O)[C@H](CO)NC(=O)CNC1=O
B7: in assay [2], the IC50 was found to be 17.9 µM.

Ac-CFIPWNLQRIGLLC-NH2 (disulfide 1-14 (inferred)) [Compound 31] had an equilibrium dissociation constant (Kd) in assay [3] of 5.83 µM. This lies in the single-digit micromolar range.

B8: Compound 66 (peptide)
peptide: H-WCLWNLKRIGSQCWF-OH
modifications: disulfide 2-13
SMILES: CC[C@H](C)[C@@H]1NC(=O)[C@H](CCCNC(=N)N)NC(=O)[C@H](CCCCN)NC(=O)[C@H](CC(C)C)NC(=O)[C@H](CC(N)=O)NC(=O)[C@H](Cc2c[nH]c3ccccc23)NC(=O)[C@H](CC(C)C)NC(=O)[C@@H](NC(=O)[C@@H](N)Cc2c[nH]c3ccccc23)CSSC[C@@H](C(=O)N[C@@H](Cc2c[nH]c3ccccc23)C(=O)N[C@@H](Cc2ccccc2)C(=O)O)NC(=O)[C@H](CCC(N)=O)NC(=O)[C@H](CO)NC(=O)CNC1=O
B8: the IC50 in assay [2] was 31.3 µM.

On to Ac-DLMPWNLVRIGL-NH2 [Compound 47], for which the IC50 in assay [1] was > 50 µM.

Consider Ac-DLMPWNLVRIGLL-NH2 [Compound 46], for which, in assay [1], the 50% inhibitory concentration (IC50) is > 50 µM.

B9: Compound 87 (peptide)
peptide: Ac-GCLWNLKRIGSQCWF-NH2
modifications: disulfide 2-13
SMILES: CC[C@H](C)[C@@H]1NC(=O)[C@H](CCCNC(=N)N)NC(=O)[C@H](CCCCN)NC(=O)[C@H](CC(C)C)NC(=O)[C@H](CC(N)=O)NC(=O)[C@H](Cc2c[nH]c3ccccc23)NC(=O)[C@H](CC(C)C)NC(=O)[C@@H](NC(=O)CNC(C)=O)CSSC[C@@H](C(=O)N[C@@H](Cc2c[nH]c3ccccc23)C(=O)N[C@@H](Cc2ccccc2)C(N)=O)NC(=O)[C@H](CCC(N)=O)NC(=O)[C@H](CO)NC(=O)CNC1=O
With B9, the half-inhibitory concentration (IC50) in assay [2] is > 50 µM.

For the molecule Ac-GSGCWNLKRIGSQGC-NH2 (disulfide 4-15 (inferred)) [Compound 22], the IC50 in assay [2] was 42 µM and > 50 µM.

In the case of Ac-DLMPWNLVRIG-NH2 [Compound 48], the IC50 in assay [1] was > 50 µM.

B10: Compound 90 (peptide)
peptide: Ac-WCLWNLKRIGSQCWF-OH
modifications: disulfide 2-13
SMILES: CC[C@H](C)[C@@H]1NC(=O)[C@H](CCCNC(=N)N)NC(=O)[C@H](CCCCN)NC(=O)[C@H](CC(C)C)NC(=O)[C@H](CC(N)=O)NC(=O)[C@H](Cc2c[nH]c3ccccc23)NC(=O)[C@H](CC(C)C)NC(=O)[C@@H](NC(=O)[C@H](Cc2c[nH]c3ccccc23)NC(C)=O)CSSC[C@@H](C(=O)N[C@@H](Cc2c[nH]c3ccccc23)C(=O)N[C@@H](Cc2ccccc2)C(=O)O)NC(=O)[C@H](CCC(N)=O)NC(=O)[C@H](CO)NC(=O)CNC1=O
For the molecule B10, the IC50 in assay [2] was determined as 29.2 µM.
